{"source": "patent US8883410B2", "about": "“Method for determining the stability of organic methyleneamines in the presence of semicarbazide-sensitive amine oxidase” (Sanofi, priority 2007, dated 2014)", "molecules": {"B1": {"name": "recombinant SSAO: recombinant human SSAO, full-length untagged, in CHO Flp-In cell lysate (protein, UniProt Q16853 1-763, looked up)", "chain": "MNQKTILVLLILAVITIFALVCVLLVGRGGDGGEPSQLPHCPSVSPSAQPWTHPGQSQLFADLSREELTAVMRFLTQRLGPGLVDAAQARPSDNCVFSVELQLPPKAAALAHLDRGSPPPAREALAIVFFGRQPQPNVSELVVGPLPHPSYMRDVTVERHGGPLPYHRRPVLFQEYLDIDQMIFNRELPQASGLLHHCCFYKHRGRNLVTMTTAPRGLQSGDRATWFGLYYNISGAGFFLHHVGLELLVNHKALDPARWTIQKVFYQGRYYDSLAQLEAQFEAGLVNVVLIPDNGTGGSWSLKSPVPPGPAPPLQFYPQGPRFSVQGSRVASSLWTFSFGLGAFSGPRIFDVRFQGERLVYEISLQEALAIYGGNSPAAMTTRYVDGGFGMGKYTTPLTRGVDCPYLATYVDWHFLLESQAPKTIRDAFCVFEQNQGLPLRRHHSDLYSHYFGGLAETVLVVRSMSTLLNYDYVWDTVFHPSGAIEIRFYATGYISSAFLFGATGKYGNQVSEHTLGTVHTHSAHFKVDLDVAGLENWVWAEDMVFVPMAVPWSPEHQLQRLQVTRKLLEMEEQAAFLVGSATPRYLYLASNHSNKWGHPRGYRIQMLSFAGEPLPQNSSMARGFSWERYQLAVTQRKEEEPSSSSVFNQNDPWAPTVDFSDFINNETIAGKDLVAWVTAGFLHIPHAEDIPNTVTVGNGVGFFLRPYNFFDEDPSFYSADSIYFRGDQDAGACEVNPLACLPQAAACAPDLPAFSHGGFSHN", "modifications": "full-length", "notes": "recombinant human SSAO, full-length untagged, in CHO Flp-In cell lysate"}}, "biological_target": "T1, recombinant human SSAO (Homo sapiens, UniProt Q16853)", "T1 construct": "expressed in transfected cells; cell lysate", "T1 sequence (Q16853 1-763)": "B1 chain", "experiment": "Amplex Red assay of specific activity of recombinant human SSAO", "assay_type": "biochemical", "excerpt": "The Amplex Red assay (a commercially available assay), was used initially to measure the specific activity of the recombinant human SSAO. Amplex Red is a colorless and nonfluorescent derivative of dihydroresorufin. In the presence of amine oxidases and SSAO, the Amplex Red reacts with H2O2 to produce the highly fluorescent product, resorufin. Resorufin has an excitation maximum at 563 nm and emission maximum at 587 nm and the assay can be quantified by reading the microtitre plate at 587 nm. The specific activity of recombinant SSAO was determined to be 280 pmol/min/mg protein and this was determined to be equivalent to the specific activity of SSAO found in human lung tissue. For subsequent assays to profile compounds in the LC/MS/MS assay, recombinant human SSAO (rhSSAO) was used at this defined specific activity."}
{"molecule": "B1", "values": [{"measurement": "specific activity of recombinant SSAO", "result": 280, "unit": "pmol/min/mg protein"}]}
